Positions count from the first letter of the chain named. Numbers in names are those of the source.
Tests used:
[1] = Saturation Transfer Difference NMR of KASIII enzymes with acetyl-CoA or isobutyryl-CoA; format: binding
Method: NMR experiments were performed at 25° C. on a Bruker AV700 MHz spectrometer equipped with a 5 mm HCN cryoprobe. Samples for STD NMR experiments were prepared in 0.1 M sodium phosphate buffer (pH 7.4) with 5% D2O. The protein/ligand ratio was set as 1:100 with KASIII concentration in the 20-25 μM range. Saturation was applied as CW pulse with a power of 58-60 Hz, with on-resonance pulses at 0.62 ppm and 6.86 ppm for upfield and downfield, respectively. The off-resonance pulse was applied at 45 ppm. 3-9-19 WATERGATE suppression was used with a T1-ρ filter. Saturation time of five seconds with an additional delay of 5.1 seconds was used. A set of three replicates was acquired, with 32 scans in each replicate, for each STD NMR experiment of KASIII wild-type or mutated enzyme with a ligand, which was either acetyl-CoA or isobutyryl-CoA (Sigma-Aldrich, St. Louis, Mo.). The reference and the saturated spectra were obtained in an interleaved manner. Resonance assignments of 1H NMR spectra of free ligands were completed using ID 1H and COSY.
Control experiments were carried out by applying on- and off-resonance saturation pulses either to the ligand in the absence of protein, or to the ligand in the presence of denatured protein.
Relative STD effects (ASTD) were calculated according to the equation ASTD=(Io−Isat)/Io where Isat is the signal intensity of the saturated spectrum and Io is the signal intensity of the reference spectrum (Mayer et al., J. Am. Chem. Soc. 123: 6108-6117 (2001)). STD amplification factor was calculated according to the equation: STDaf=ASTD×molar ligand excess.
STD NMR experiments elucidated interactions of these purified enzymes (both wild-type and mutated) with straight-chain substrate (acetyl-CoA) and branched-chain substrate (isobutyryl-CoA) and enabled mapping of binding epitopes on the two substrates. Relative saturation transfer to each of the binding epitopes was measured and converted to the STD amplification factor (STDaf), which is an indicator of ligand binding (Mayer et al., J. Am. Chem. Soc. 123: 6108-6117 (2001)). Ligand epitopes with high STDaf values are assumed to receive higher saturation transfer from the enzyme, and thus are in close contact with the enzyme.

[2] = Spectrophotometric coupled assay (FabD/FabG, NADPH at 340 nm) of KASIII specific activity with acyl-CoA substrates; settings: for Specific Activity with Acetyl-CoA: substrate acetyl-CoA; for Specific Activity with Acetyl-CoA / Specific Activity with Isobutyryl-CoA: n.d. = not detectable; for Specific Activity with Isobutyryl-CoA: substrate isobutyryl-CoA
Method: The method comprises (i) incubating holo-ACP, malonyl-CoA, acyl-CoA, NADPH, and malonyl-CoA:ACP transacylase (FabD), (ii) adding KASIII and 3-ketoacyl-ACP reductase (FabG), and (iii) measuring the change in absorbance at 340 nm when NADPH is converted to NADP+ during reduction of 3-ketoacyl-ACP to 3-hydroxyl-acyl ACP by FabG.
Activity of A. acidocaldarius KASIII with different acyl-CoA substrates (acetyl-CoA, isobutyryl-CoA and 3-hydroxybutyryl-CoA (Sigma-Aldrich)) was ascertained by a coupled assay. The assay was performed in 96-well plate format with three replicates for each reaction condition. In a total volume of 100 μl for each reaction the reaction mix containing 100 μM holo-ACP, 200 μM malonyl-CoA, 10 mM DTT, 50 μM acyl-CoA substrate (either acetyl-CoA, isobutyryl-CoA or 3-hydroxy-butyryl-CoA) and 200 μM NADPH in 0.1 M sodium phosphate buffer (pH 7.2) was pre-incubated with 60 μg of FabD for two minutes. The reaction was started by the addition of 30 μg of FabG and varying concentrations of A. acidocaldarius (0.5-15 μg). Change in absorbance of NADPH that was being converted to NADP^+ during reduction of 3-ketoacyl-ACP 3-hydroxy-acyl-ACP by FabG was recorded at 340 nm using a Biotek multi-plate reader.
Spectrophotometric assay was used to assess the activity of A. acidocaldarius KASIII with various acyl-CoA substrates. The assay coupled the appearance of the KASIII-product (3-ketoacyl-ACP) to the oxidation of NADPH, catalyzed by 3-ketoacyl-ACP reductase (FabG).
KASIII enzymatic activity was ascertained via spectrophotometric assay, which coupled the appearance of 3-ketoacyl-ACP to the oxidation of NADPH, using the E. coli FabG protein to reduce 3-ketoacyl-ACP to 3-hydroxyacyl-ACP. The assay was performed in a 96-well plate-format with three technical replicates for each reaction condition. In a total volume of 100 μl for each reaction, the reaction mix contained 100 μM holo-ACP, 200 μM malonyl-CoA, 10 mM DTT, 50 μM acyl-CoA substrate, and 200 μM NADPH in 0.1 M sodium phosphate buffer (pH 7.2). This mixture was pre-incubated with 60 μg of FabD for two minutes to initiate synthesis of malonyl-ACP from malonyl-CoA and holo-ACP. The reaction was then started by the addition of 30 μg of FabG and varying concentrations of KASIII enzyme (0.5-15 μg). As KASIII catalysed the condensation of acyl-CoA with malonyl-ACP to form 3-ketoacyl-ACP, FabG reduced the 3-ketoacyl-ACP intermediate to 3-hydroxy-acyl ACP in the presence of NADPH.

[3] = test system: B. subtilis FabH deletion mutant; assay: Fatty acid production by recombinant KASIII in B. subtilis FabH deletion mutant; format: cell-based; settings: B. subtilis FabH deletion mutant rescued by the recombinant KASIII

B1: E. coli KASIII F304A (protein)
chain: MYTKIIGTGSYLPEQVRTNADLEKMVDTSDEWIVTRTGIRERHIAAPNETVSTMGFEAATRAIEMAGIEKDQIGLIVVATTSATHAFPSAACQIQSMLGIKGCPAFDVAAACAGFTYALSVADQYVKSGAVKYALVVGSDVLARTCDPTDRGTIIIFGDGAGAAVLAASEEPGIISTHLHADGSYGELLTLPNADRVNPENSIHLTMAGNEVFKFAVTEMAHIVDETLAANNLDRSQLDWLVPHQANLRIISATAKKLGMSMDNVVVTLDRHGNTSAASVPCALDEAVRDGRIKPGQLVLLEAAGGGFTWGSALVRF
modifications: E. coli mutant; (304)..(304) phenylalanine at amino acid position 304 replaced with alanine
[1]; mutant vs wild-type
  Lower saturation transfer to the HT protons of acetyl-CoA and isobutyryl-CoA compared to the wild-type: approximately 60%

B2: E. coli KASIII V215F_L220M: E. coli KASIII double mutant V215F_L220M, amino acid sequence SEQ ID NO:116 (protein)
chain: B1 chain with A304F
modifications: E. coli mutant; (215)..(215) valine at amino acid position 215 replaced with phenylalanine; (220)..(220) leucine at amino acid position 220 replaced with methionine
[2]
  Specific Activity with Acetyl-CoA: 221 ± 104 nmol/min/mg
  Specific Activity with Isobutyryl-CoA: 18 ± 5 nmol/min/mg

B3: KASIII from Bacteroides vulgatus: KASIII from Bacteroides vulgatus, GenBank ABR38167.1 (protein, UniProt A6KXK3 1-334, looked up)
Beta-ketoacyl-[acyl-carrier-pr …: MEKINAVITGVGGYVPDYVLTNEEISRMVDTNDEWIMTRIGVKERRILNEEGLGTSYMARKAAKQLMQKTASNPDDIDAVIVATTTPDYHFPSTASILCDKLGLKNAFAFDLQAACCGFLYLMETAASLIASGRHKKIIIVGADKMSSMVNYQDRATCPIFGDGAAACMVEATTEDYGIMDSILRTDGKGLPFLHMKAGGSVCPPSYFTVDHKMHYLYQEGRTVFKYAVSNMSDITATIAEKNGLNKDNIDWVIPHQANLRIIDAVASRLEVPLEKVMINIQRYGNTSGATLPLCLWDYEKQLKKGDNLIFTAFGAGFTYGAVYVKWGYDGSKR
[3]
  Fatty acid content: Anteiso-fatty acids: 70.43 mole %
  Fatty acid content: Even-number iso-fatty acids: 1.73 mole %
  Fatty acid content: Even-number normal fatty acids: 9.51 mole %
  Fatty acid content: Odd-number iso-fatty acids: 18.24 mole %
  Fatty acid content: Odd-number normal fatty acids: 0.09 mole %
[2]; acetyl-CoA, isobutyryl-CoA and 3-hydroxybutyryl-CoA tested
  Substrate preference in the spectrophotometric assay: higher preference for isobutyryl-CoA and 3-hydroxybutyryl-CoA as compared to acetyl-CoA

B4: B. subtilis KASIIIb W221V: B. subtilis KASIIIB single mutant W221V, amino acid sequence SEQ ID NO:128 (protein)
chain: MSKAKITAIGTYAPSRRLTNADLEKIVDTSDEWIVQRTGMRERRIADEHQFTSDLCIEAVKNLKSRYKGTLDDVDMILVATTTSDYAFPSTACRVQEYFGWESTGALDINATCAGLTYGLHLANGLITSGLHQKILVIAGETLSKVTDYTDRTTCVLFGDAAGALLVERDEETPGFLASVQGTSGNGGDILYRAGLRNEINGVQLVGSGKMVQNGREVYKVAARTVPGEFERLLHKAGLSSDDLDWFVPHSANLRMIESICEKTPFPIEKTLTSVEHYGNTSSVSIVLALDLAVKAGKLKKDQIVLLFGFGGGLTYTGLLIKWGM
modifications: B. subtilis KASIIIB mutant; (221)..(221) tryptophan at amino acid position 221 replaced with valine
[2]
  Specific Activity with Isobutyryl-CoA: completely eliminated activity

B5: B. subtilis KASIIIb V226L: B. subtilis KASIIIB single mutant V226L, amino acid sequence SEQ ID NO:130 (protein)
chain: B4 chain with V221W, V226L
modifications: B. subtilis KASIIIB mutant; (226)..(226) valine at amino acid position 226 replaced with leucine
[2]; mutant compared with wild-type enzyme
  Loss of activity with isobutyryl-CoA: approximately 50%
[2]
  Specific Activity with Isobutyryl-CoA: 134 ± 6 nmol/min/mg

B6: B. subtilis KASIIIa Wild-type: B. subtilis KASIIIA, bfabHA (yjaX) locus, GenBank CAB12974.1, amino acid sequence SEQ ID NO:64 (protein)
chain: MKAGILGVGRYIPEKVLTNHDLEKMVETSDEWIRTRTGIEERRIAADDVFSSHMAVAAAKNALEQAEVAAEDLDMILVATVTPDQSFPTVSCMIQEQLGAKKACAMDISAACAGFMYGVVTGKQFIESGTYKHVLVVGVEKLSSITDWEDRNTAVLFGDGAGAAVVGPVSDDRGILSFELGADGTGGQHLYLNEKRHTIMNGREVFKFAVRQMGESCVNVIEKAGLSKEDVDFLIPHQANIRIMEAARERLELPVEKMSKTVHKYGNTSAASIPISLVEELEAGKIKDGDVVVMVGFGGGLTWGAIAIRWGR
modifications: B. subtilis
[2]; conserved Phe mutated to Ala, compared with wild-type
  Catalytic activity with the isobutyryl-CoA substrate retained: about 25%
[2]
  Specific Activity with Acetyl-CoA: 64 ± 32 nmol/min/mg
  Specific Activity with Isobutyryl-CoA: 205 ± 139 nmol/min/mg
[1]; isobutyryl-CoA vs acetyl-CoA
  Higher saturation of HAP proton of isobutyryl-CoA as compared to the acetyl-CoA HAP proton: ~28%
[1]; protein/ligand 1:100, 25° C.
  STD amplification factor (STDaf), HT proton of acetyl-CoA: 1.5
  STD amplification factor (STDaf), HT proton of isobutyryl-CoA: 1.5

B7: B. subtilis KASIIIa F208V_M213L: B. subtilis KASIIIA double mutant F208V_M213L, amino acid sequence SEQ ID NO:124 (protein)
chain: B6 chain with F208V, M213L
modifications: B. subtilis KASIIIA double mutant; (208)..(208) phenylalanine at amino acid position 208 replaced with valine; (213)..(213) methionine at amino acid position 213 replaced with leucine
[2]
  Specific Activity with Isobutyryl-CoA: 17 ± 7 nmol/min/mg

B8: B. subtilis KASIIIa F297A: B. subtilis KASIII containing an F297A mutation, amino acid sequence SEQ ID NO:126 (protein)
chain: B6 chain with F208V, M213L, F297A
modifications: B. subtilis KASIIIA mutant; (297)..(297) phenylalanine at amino acid position 297 replaced with alanine
[2]
  Specific Activity with Isobutyryl-CoA: 56 ± 28 nmol/min/mg

B9: B. subtilis KASIIIa F208V: B. subtilis KASIIIA single mutant F208V, amino acid sequence SEQ ID NO:120 (protein)
chain: B6 chain with F208V
modifications: B. subtilis KASIIIA mutant; (208)..(208) phenylalanine at amino acid position 208 replaced with valine
[1]; mutant vs wild-type
  Decrease in saturation transfer/STDaf for isobutyryl-CoA HT and HB protons in comparison to the wild-type: ~40%

B10: B. subtilis KASIIIa M213L: B. subtilis KASIIIA single mutant M213L, amino acid sequence SEQ ID NO:122 (protein)
chain: B6 chain with M213L
modifications: B. subtilis KASIIIA mutant; (213)..(213) methionine at amino acid position 213 replaced with leucine
[2]
  Specific Activity with Isobutyryl-CoA: 156 ± 47 nmol/min/mg
[1]; mutant vs wild-type
  Decrease in STDaf for acetyl-CoA HT proton: 40%
  Decrease in saturation transfer/STDaf for isobutyryl-CoA HT and HB protons in comparison to the wild-type: 60-70%

Source: US10184140B2, “Materials and methods for production of bi-functional fatty acids in recombinant bacteria” (IOWA STATE UNIVERSITY RESEARCH FOUNDATION, INC., priority 2013, dated 2019)
